# Experimental data reported in article PMC6479007, “Phycobilisomes Harbor FNRL in Cyanobacteria” (mBio, 2019).
# B1: ferredoxin-NADP+ oxidoreductase, large isoform (FNRL) (enzyme, UniProt Q55318 1-413, looked up)
# chain: MYSPGYVATSSRQSDAGNRLFVYEVIGLSQSTMTDGLDYPIRRSGSTFITVPLKRMNQEMRRITRMGGKIVSIKPLEGDSPLPHTEGIAKPSQSEGSGSEAVANPAPESNKTMTTTPKEKKADDIPVNIYRPKTPYIGKVLENYPLVREGAIGTVQHLTFDLSAGDLRYLEGQSIGIIPPGEDDKGKPHKLRLYSIASTRHGDFGDDKTVSLCVRQLEYQNEAGETVQGVCSTYLCNIKEGDDIAITGPVGKEMLLPPDEDANIVMLATGTGIAPFRAFLWRMFKEQHEDYKFKGLAWLIFGIPKSENILYKDDLEKMAAEFPDNFRLTYAISREQQNAEGGRMYIQHRVAENAEELWNLMQNPKTHTYMCGLKGMEPGIDEAFTALAEQNGKEWTTFQREMKKEHRWHVETY
# modifications: acetylation on the N terminus in a part of the molecules (6% in CpcG-PBS, 12% in CpcL-PBS)
# notes: ferredoxin-NADP+ oxidoreductase, large isoform FNRL, Synechocystis sp; PCC 6803, slr1643; The small FNR isoform of the same gene is not meant; also called large FNR; Fd-NADP+ oxidoreductase; source: endogenous, Synechocystis 6803 wild-type and ΔAB cells; isolated with the phycobilisomes on a sucrose gradient
# How the values were obtained:
# [1] = target: T1, CpcL-PBS (CpcL-type phycobilisome, without allophycocyanin) (Synechocystis sp. strain PCC 6803 …, UniProt Q54715 1-162; Q54714 1-172; P73203 1-291; P73204 1-273; P73202 1-83; P74625 …); assay: co-sedimentation; step-gradient sucrose density ultracentrifugation (370,000 x g overnight) of broken cells in 0.8 M K-phosphate pH 7.5 after 2% Triton X-100; blue bands analysed by SDS-PAGE (CBB R-250) and by trypsin digestion with LC-MS/MS label-free quantification (PEAKS; Protein Metrics); conditions: partners not purified
# T1 construct: phycocyanin alpha subunit CpcA, Synechocystis sp; PCC 6803; phycocyanin beta subunit CpcB, Synechocystis sp; rod linker protein CpcC1, Synechocystis sp; rod linker protein CpcC2, Synechocystis sp; rod-capping linker CpcD, Synechocystis sp; PCC 6803, ssl3093; CpcL (formerly CpcG2), Synechocystis sp; PCC 6803, sll1471; the first methionine is removed posttranslationally, threonine is the first …
# [2] = target: B1; assay: cross-linking; isolated CpcG-PBS and CpcL-PBS (partners co-purified in the native complex), 0.1 uM in 0.2 M K-phosphate, 1:1 BS3-H12/D12, 10 min in the dark at room temperature, cross-linker/PBS 10:1, 50:1 and 100:1; LysC and trypsin digestion, LC-MS/MS, ICC-CLASS and pLink; conditions: both partners purified
"fold higher FNRL content than in CpcG-PBS, normalised to CpcC1 [1] [fold]","ratio of FNRL content, CpcL-PBS to CpcG-PBS (manual quantification, Protein Metrics) [1]","ratio of FNRL content, CpcL-PBS/CpcG-PBS (PEAKS label-free quantification) [1]",binding result [2],Binder
2.4,1.9,1.99,–,B1
–,–,–,binds,"CpcA (phycocyanin alpha subunit) (natural protein, phycocyanin alpha subunit CpcA, Synechocystis sp; PCC 6803; cross-linked through its N-terminal M1; In the assay it stood inside the assembled phycobilisome; also called PC alpha subunit; source: endogenous, Synechocystis 6803 cells; in isolated phycobilisomes) not shown"
–,–,–,binds,"CpcB (phycocyanin beta subunit) (natural protein, UniProt Q54714 1-172, looked up, phycocyanin beta subunit CpcB, Synechocystis sp; PCC 6803; N-terminal peptide 1MFDVFTR found cross-linked through the primary amine of M1; In the assay it stood inside the assembled phycobilisome; also called PC beta subunit; source: endogenous, Synechocystis 6803 wild-type and ΔAB cells; in isolated CpcG-PBS and CpcL-PBS) MFDVFTRVVSQADARGEYLSGSQLDALSATVAEGNKRIDSVNRITGNASAIVSNAARALFAEQPQLIQPGGNAYTSRRMAACLRDMEIILRYVTYATFTGDASVLEDRCLNGLRETYVALGVPGASVAAGVQKMKEAALDIVNDPNGITRGDCSAIVAEIAGYFDRAAAAVA"
